According to a protein production outcome set (Wang et al. 2014):

Test: label from the status in PepcDB records

Sequence	protein production
MSMVLSFLKKFVENHVMSRHTVAVTLFLTDMAVILGTAIGVGLLRHAFDGYLDPTHYLRLLPFLLLFPAASFAMGLYQSVPLPPPCELKRLSLATCCTYLAIAIFIFFTRGGELYSRLTFALAGLVSLVAVPVARHLVRQRMARHRGWAAPALLFGKPHHVQPLAHILLSSPSLGLEPVAIVSAEHSTCHDFGCLPAFDAETTRQYAAGHPEAYAIVVMESYDEADRAHLVEHLSRLFCSVILLRSSTMSTGNIWLSPIEIGGLPGLMVRQNLLDPRRLTVKRTLDLIATTLALPLILPVMAVIALCIRLETPGPALFTQRRIGRDGYHFDILKFRTMYNDADTRLAECLEQSPELDAEWRRDHKLRCDPRVTRVGAFLRKTSLDELPQLWNVLRGDMSLVGPRPIVDSEVQRYDAAFATYTRVRPGITGLWQVSGRNNLSYPERVQRDMYYISNWSVWFDIWIIARTIPVVLHRDGAY	failed
MEQTQQNHFTALFYKNVLLGILSMAAQSIFILADTFFIANGIGTEALAGLNIVLPLVNIINGLGWMFGVGGATLFSTTVAQKEIKKANQYFSLTIGLVFVIGRLFTLVSLIFSDQIIRGLQGTGVLFGLAKEYYMIYLSCSLLFILNNCLITFLRNDHNPRLATIAFVSGGIVNIILDYVFIYQFGWGMAGAAIATVMSPLTSLILITLHKWSPQRVLRFEKFKVKFQDVREIMSIGFSSFLNEFSSAFVMFLFNIVLLNLVGHVAISAYAIVANLNIIVIAIFTGIGQGAQPLLSRYYGLGETKVLRKFVKLSFITYLVAGFLFFLISQVFTGQIIEVFNSEGNDQLAQIARTAIRLYAISFLFTGLNFMGIYYFSAVRKPKMALMISSLRGFFLIVPVLFILVKLLGLTGVWLAMPVVEFVTFGLMLVGYLAYRNYLKKREAVT	failed
MPVGIIGHYRCGEHNMGEHHPENGKRLTAISDQLIRSGLDYVVRQFDSKPIDKSLLALAHTQEHIDFVFDNAPNEGEENFTVGEDSVMNEKTLTSIMYSAGAAVDAVDLVMEGTLGAAFCATRPPGHHAEHDKGMGFCFFNNVAVAAAYAKQKYGLKRVAIVDFDVHHGNGTEDIITNHFNATPEDDKGYLFCSSYQYPLYPFEIQESDTPPIINTPLAATTKGEQFREKLTAHWLPALHKFKPELILISAGFDAHIEDEMSHVSLTEADYRWITDELKIIAEEYGKGRIVSVLEGGYAPSALGRSVVAHVNGLIGN	failed
MINDIKILGVGGSPRKNGNTDVLLDSFLKGAESAGVETKKVLLRDYSIEPCIGCERCRKTGTCTRFHDGMSLLYPEIEAAKGLTLGSPTYNYNVTALMKAFIDRLYPYYNFTNVRPRRYSSKLAGQGRKAIVFSVCEQLEIEEMGFTLGALGMPLEALGYEIVEKFPVTGYFDRGAVSRDEELLRKTFEAGKKMAEALHLEHHHHHH	failed
MSLNRVFIVDDDTLTCNLLKTIVEPIFGNVEAFQHPRAFLTLSLNKQDIIILDLMMPDMDGIEVIRHLAEHKSPASLILISGYDSGVLHSAETLALSCGLNVINTFTKPINTEVLTCFLTSLSNRQAEGHHHHHH	not failed
MAGSVADSDAVVKLDDGHLNNSLSSPVQADVYFPRLIVPFCGHIKGGMRPGKKVLVMGIVDLNPESFAISLTCGDSEDPPADVAIELKAVFTDRQLLRNSCISGERGEEQSAIPYFPFIPDQPFRVEILCEHPRFRVFVDGHQLFDFYHRIQTLSAIDTIKINGDLQITKLG	failed
GSHMEKVPGEMEIERRERSEELSEAERKAVQAMWARLYANCEDVGVAILVRFFVNFPSAKQYFSQFKHMEDPLEMERSPQLRKHACRVMGALNTVVENLHDPDKVSSVLALVGKAHALKHKVEPVYFKILSGVILEVVAEEFASDFPPETQRAWAKLRGLIYSHVTAAYKEVGWVQQVPNATTPPATLPSSGP	not failed
MNIVTLLGSPRSRGISAAIAARFTDTAAGLGAQTRTFELNRLAYRGCQGCYACKKTLDHCVLTDDLAQVLDAVRGADVVVLASPVYYGDVTAQLKGFIDRTFSYLKPDYLSNPQPSRLSPKKLVFVLTQGHPDEGMFADIFPRYEGFLTWLGFVDARLIRACGFGPSTVDKVPEQYLREAEQAAREIVGQGKG	failed
MNCGRIRSLLQGGEATAGPVIYWMSRDQRVADNWALIHAQKLALARSAPLGVLFCLAPRFLGATARQYRFMLKGLEQVRAALNRLDIPFFLVTGDPKGAVAAFTRRHRVSYLVTDFDPLRVKREWKRQVAGEISIPFDEVDAHNIVPCWITSQRQEWGAYTIRPKIHRLLPDFMEPFPPLQRHPFPWQGALPSDAEWRETFTGMTLDESVPEVSWLASGEEAAQAALARFLEDGLAGYATRRNNPAVMGQSGLSPWLHFGQLSAQRVAQAAFAAAAPIESRDAFLEELIVRRELADNFCYYNDAYDRFDGFPEWAQRTLNRHRHDPRPQCYEHDVLEQGQTHDSLWNAAQLEMVRWGRMHGYLRMYWAKKLLEWTSSPEDALMIAIQLNDRYQLDGRDPNGYAGIAWSIGGVHDRPWAERPVFGTIRFMSRDGCRRKFDTDAYERRVIISPATCAGIALCK	failed
GKSFDAVRRTLSTELAQLRDDISRLMQAAVEAGAEAADDGEAVVISGERKLLDVTDIASDMDRLRKMFSLFEKKTDLLQLLDVSSRAQGVQIYIGGDSQLVPMEEVSVITAPYGVDGKVIGTLGVIGPTRMAYERVIPIVDITARLLSNALSHNQ	failed
MEFLIILLLLVLNGIFAMYEIALVSSSKARLETLAGKGNKSARGVLKQLEEPEKFLSTIQIGITLIGIVSGAYGGVAIADDLVPLFSLIPGAEAYARNLAMITTVVIITYLSLIIGELVPKSIALSNPERYATLFSPIMILLTKVSYPFVWFLSISTRLLNRIIGVKNEERPMTQEEIKMILHQSSEQGVIDKEETEMLRDVFRFSDKRANELMTHRRDLVIFHPDDTKDKVMKTIEEEHYSKYLLVDERKDEIIGVVSVKDIILMVGNKKEFNLREIARPALFIPESLYANKILELFKKNKNKFGVVVNEYGSTEGIITLHDLTESIFGDILEEDDTEEEDIVRRQDGSMLVEASMNIKDFMEEMGILSYEDLEDEDFTTLGGLAMFLLGGIPKAGDIFTYKNLQFEVVDMDRGRVDKLLVIKRDEEE	failed
MQVPGHAFNPVAAPYFPDHLAFLDGPMNARAQGLPRRLENIVLVADLAGTAVFAVEGAISAMRAQLDLLGVMVIAFIVALGGGVTRDLLIGATPPKAVADWRYPALALLMGGLAFVARDWVLGWSGPLLILLDAAGLGLFAVAGTQKAQNFGISPFVSMLMGTVTGVGGGVIRDIVLARIPLVLQVDLYASSAFVGAASLVIARRLGVPPLWSAWLAGTVCFALRMLSVRYGWQLPKAL	failed
MMAACWFGCAPAAELHAYTEDVPPLNYLDNGNVKGYSTEVLQLVAREAGFNLTVEVLPWLRAYAKARDTAGGLLYTVVRTPEREAQFQWVGPIGSRRIYMYRLGPRGNIRVDAASDLTRYRNGVLTGSATASQLQALGLQSGLNLDLGQSDAVNLKKLLLKRVDLIAMLDWAMAWQLRLQRLPENTVAPAWLLDGKLQYWFALNPHTPPEQVAKLQAALDRIRADGRLQAIRRRYRDD	failed
MSKDFDLIIRNAYLSEKDSVYDIGIVGDRIIKIEAKIEGTVKDEIDAKGNLVSPGFVDAHTHMDKSFTSTGERLPKFWSRPYTRDAAIEDGLKYYKNATHEEIKRHVIEHAHMQVLHGTLYTRTHVDVDSVAKTKAVEAVLEAKEELKDLIDIQVVAFAQSGFFVDLESESLIRKSLDMGCDLVGGVDPATRENNVEGSLDLCFKLAKEYDVDIDYHIHDIGTVGVYSINRLAQKTIENGYKGRVTTSHAWCFADAPSEWLDEAIPLYKDSGMKFVTCFSSTPPTMPVIKLLEAGINLGCASDNIRDFWVPFGNGDMVQGALIETQRLELKTNRDLGLIWKMITSEGARVLGIEKNYGIEVGKKADLVVLNSLSPQWAIIDQAKRLCVIKNGRIIVKDEVIVA	not failed
MSSPGGGTRFALVAGTTETAGRAGISAAGADPELMSVTPAADAELVTYGTPVRTDVTPVSPSGCPTPALVTRAAREVLGFDVTVVDGGLAEKTGAPTVSVGARPGKDIAEQDPVSTAHGAFAAARQFGQSLPADELYLGETIPGGTTTALGVLRALGEDGMVSSSLPENPTAQKSEVVAEGLQASSLEPGDAANEPKRAVRRMGDPVLATLAGLTAGAVESDTAVTLAGGSQCVAVAALVRHGGYEGPLGLATTSYVADDESADVRASVDRLDLDLTVTDPGFDRSDHVAMERFVAGEAKEGVGMGGALALAD	not failed
MRSNTFIQFAATLVAFVAACLFPAWSMAATHNVVLSAETLPNGQPAYKLLSHTSSNGTVPGYATEATIPGPTLFIKTGDKINVQLTNNTQSPVSFTAPGLSTGNSALAAPGQTKSYRLNARKAGTFAYHDEKAPMLGLFGAIVVDESNGHVQSYVDGDGTIVSTKRSQLSKEFVLFMVGSTFWGAEISRNGNQQPLWANPDLGAYQDDLLRFHVLAVGPGHTFHLHAHRWIEPGSSQKTPHIIDTHILDDLNNSHVFTIKAGTGVGPGVWQLHCHLISHMQSGMNSRIHVVARDSGQSADSIVGASPSGAIFLNDSDQPGLVTFIVSDEPAGWFRSARGDALSPVTHTKSLEIIPPGSSVHFVMSDTAGVHTITSLLWPSEAGHNDHGGDHFMIPFDETKAYRGGAILKLNVPGLYVFTCKIHPFMFAAVIVDDPATDGLDLGNTIDLISGVKNLPTSSDLATRLLHTFFVTTVPKNWQDFTSPNPWKIAYPDVDVVVDIGKVSLPAVLNARYGNDISLSPLPRPAVPGIGEVWVDTQFEKTAGKTKPGTITVVDTSNWTLKRKIALPQINMNNPHNMWPNRDHSIVYTTQWFDNKLTAIKQKTGKLASNVQVGDSPSHVMTLPNTDDITVAINGENDIVIIPAGTTKVNYALLTQSHGQAPGNPHGHWISADGKRIITPNINTHDAGFYDVEDGKIVARTATGEGQPGAHPIAIGMLPDSSKVYAANLLHHSVSVMDGDGNFIKNINLIEHYDPISGAINGPIGILPIQSPVSPDGKVMVTASYGGQIVVIDTRTDSIVKSLPCDPGCHGANFGAKKGGGYYAYITNKFSNRLIVVDPDPNGDGDLSDAEIAGAVTLVADSRVPKDDKISSLAGFGGQGIVALPNVYNGWVQNLNSQWSAGLTDQQRNPVQ	failed
MEKIERLRSAFDEAGIDGILLTNEHSRRYMANFTGTAGVVLISKKRAQFITDFRYVEQASKQAVGYEIVQHAGLIIDEVAKQVKELGIQKLGFEQDTLTYSSYSAHKEAIDAEFIPTSGLVEKLRLIKTDSEIKILKEAAQIADAAFEHILSFIRPGVSEIEVSNELEFFMRKQGATSSSFDIIVASGLRSALPHGVASEKVIETGDFVTLDFGAYYKGYCSDITRTIAVGEPSDKLKEIYNIVLEAQLRGVNGIKAGLTGREADALTRDYITEKGYGEYFGHSTGHGIGLEIHEAPGLAFRSDTVLEPGMAVTVEPGIYIPGIGGVRIEDDIIVTSEGNEVITKSPKELIIL	not failed
MSAVVAQTLHVFGLRSHVANNIFYFDEQIIIFPSGNHCVKYNVDQKWQKFIPGSEKSQGMLALSISPNRRYLAISETVQEKPAITIYELSSIPCRKRKVLNNFDFQVQKFISMAFSPDSKYLLAQTSPPESNLVYWLWEKQKVMAIVRIDTQNNPVYQVSFSPQDNTQVCVTGNGMFKLLRFAEGTLKQTSFQRGEPQNYLAHTWVADDKIVVGTDTGKLFLFESGDQRWETSIMVKEPTNGSKSLDVIQESESLIEFPPVSSPLPSYEQMVAASSHSQMSMPQVFAIAAYSKGFACSAGPGRVLLFEKMEEKDFYRESREIRIPVDPQSNDPSQSDKQDVLCLCFSPSEETLVASTSKNQLYSITMSLTEISKGEPAHFEYLMYPLHSAPITGLATCIRKPLIATCSLDRSIRLWNYETNTLELFKEYQEEAYSISLHPSGHFIVVGFADKLRLMNLLIDDIRSFKEYSVRGCGECSFSNGGHLFAAVNGNVIHVYTTTSLENISSLKGHTGKIRSIVWNADDSKLISGGTDGAVYEWNLSTGKRETECVLKSCSYNCVTVSPDAKIIFAVGSDHTLKEIADSLILREISAFDVTYTAIVISHSGRMMFVGTSVGTIRAMKYPLPLQKEFNEYQAHAGPITKVSRTLSPGTQSHTCLLRALFIPSTSQCLFSLLLLSYLFIHHSLNHHLLTMNILFV	failed
